Here are results for seven molecules from patent US20170190787A1 (INSERM INSTITUT NATIONAL DE LA SANT ET DE LA RECHERCHE M …, published 2017).

For assay [1], the target named is T1, wild type EGFR on cells in the presence of EGF (ligand-activated, extended conformation) (UniProt P00533 25-1210; P01133 971-1023).
T1 construct: Receptor-ligand complex as the target: EGFR with EGF added to the cells; also called extended EGFR
As to the kind of experiment: flow cytometry on A431 cells, G10-d2 in the presence of EGF. (In general: A flow cytometer gives signals particle by particle.)

Assay [2] concerns the target T2, EGFR fused to SNAP-tag, expressed on transfected HEK293T cells (UniProt P00533 25-1210, terbium cryptate donor fluorochrome (SNAP-Tb) covalently on the SNAP-tag).
T2 construct: whole, on cells; also called EGFR-ST; ErbB1-ST; not shown: SNAP-tag and FLAG tag (Cisbio plasmid)
Put plainly: HTRF on EGFR-ST cells; KD in the presence of D10 as competitor.

Assay [3] has as its target T2, EGFR fused to SNAP-tag, expressed on …. Put plainly: HTRF on EGFR-ST cells; KD in the presence of E10 as competitor. (In general: In TR-FRET formats the signal depends on donor and acceptor labels being close together.)
Assay [4] has the same target. Put plainly: KD in the presence of m425 as competitor; method not stated for Table 3.
The target is the same in assay [5]. As to the kind of experiment: HTRF on EGFR-ST cells; KD in the presence of irrelevant sdAb as competitor.
The target is the same in assay [6]. As to the kind of experiment: KD in the presence of cetuximab as competitor; method not stated for Table 3.
Assay [7] has the same target. As to the kind of experiment: KD in the presence of panitumumab as competitor; method not stated for Table 3.
The target is the same in assay [8]. Put plainly: HTRF on EGFR-ST transfected HEK293T cells, directly d2-labeled sdAb; apparent Kd.
Assay [9] shares this target. As to the kind of experiment: KD in the presence of irrelevant sdAb as competitor; method not stated for Table 3.
Assay [10] deals with T3, ErbB2 fused to SNAP-tag, expressed on transfected HEK293T cells (UniProt P04626 23-1255, donor fluorochrome covalently on the SNAP-tag).
T3 construct: whole, on cells; also called ErbB2-ST; not shown: SNAP-tag and FLAG tag
As to the kind of experiment: HTRF on transfected HEK293T cells, anti-His-d2 detection.

The target of assay [11] is T4, ErbB3 fused to SNAP-tag, expressed on transfected HEK293T cells (UniProt P21860 20-1342, donor fluorochrome covalently on the SNAP-tag).
T4 construct: whole, on cells; also called ErbB3-ST; not shown: SNAP-tag and FLAG tag
The description is as above.

For assay [12], the target named is T5, ErbB4 fused to HALO-Tag, expressed on transfected HEK293T cells (UniProt Q15303 26-1308, donor fluorochrome covalently on the HALO-Tag).
T5 construct: whole, on cells; also called ErbB4-HT; not shown: HALO-Tag and c-myc tag
The assay is described as above.

For assay [13], the target named is T2, EGFR fused to SNAP-tag, expressed on …. Put plainly: HTRF on EGFR-ST transfected HEK293T cells, sdAb detected with anti-His-d2; apparent Kd.
For assay [14], the target named is T1, wild type EGFR on cells in the presence …. Put plainly: flow cytometry on A431 cells, d2-labeled sdAb with excess EGF.
For assay [15], the target named is T2, EGFR fused to SNAP-tag, expressed on …. Put plainly: HTRF on EGFR-ST cells; KD in the presence of G10 as competitor.
For assay [16] the target is unchanged. As to the kind of experiment: KD in the presence of Ab-3 as competitor; method not stated for Table 3.
The target in assay [17] is T6, wild type EGFR on cells (A431 cells; HEK293T or NIH/3T3 cells transfected with wild type ErbB1) (UniProt P00533 25-1210, limits assumed).
T6 construct: whole, on cells; no ligand added; also called HER1
As to the kind of experiment: flow cytometry on A431 cells, d2-labeled sdAb with large excess of cetuximab.

The target of assay [18] is T2, EGFR fused to SNAP-tag, expressed on …. As to the kind of experiment: HTRF on living cells; comparison value for monovalent D10.
For assay [19] the target is unchanged. Put plainly: KD in the presence of irrelevant sdAb as competitor; method not stated for Table 3 (values of this column equal Table 2, HTRF on EGFR-ST).
Assay [20] has as its target T6, wild type EGFR on cells (A431 cells; …). Put plainly: cell-based or functional assay.

T5 sequence (Q15303 26-1308): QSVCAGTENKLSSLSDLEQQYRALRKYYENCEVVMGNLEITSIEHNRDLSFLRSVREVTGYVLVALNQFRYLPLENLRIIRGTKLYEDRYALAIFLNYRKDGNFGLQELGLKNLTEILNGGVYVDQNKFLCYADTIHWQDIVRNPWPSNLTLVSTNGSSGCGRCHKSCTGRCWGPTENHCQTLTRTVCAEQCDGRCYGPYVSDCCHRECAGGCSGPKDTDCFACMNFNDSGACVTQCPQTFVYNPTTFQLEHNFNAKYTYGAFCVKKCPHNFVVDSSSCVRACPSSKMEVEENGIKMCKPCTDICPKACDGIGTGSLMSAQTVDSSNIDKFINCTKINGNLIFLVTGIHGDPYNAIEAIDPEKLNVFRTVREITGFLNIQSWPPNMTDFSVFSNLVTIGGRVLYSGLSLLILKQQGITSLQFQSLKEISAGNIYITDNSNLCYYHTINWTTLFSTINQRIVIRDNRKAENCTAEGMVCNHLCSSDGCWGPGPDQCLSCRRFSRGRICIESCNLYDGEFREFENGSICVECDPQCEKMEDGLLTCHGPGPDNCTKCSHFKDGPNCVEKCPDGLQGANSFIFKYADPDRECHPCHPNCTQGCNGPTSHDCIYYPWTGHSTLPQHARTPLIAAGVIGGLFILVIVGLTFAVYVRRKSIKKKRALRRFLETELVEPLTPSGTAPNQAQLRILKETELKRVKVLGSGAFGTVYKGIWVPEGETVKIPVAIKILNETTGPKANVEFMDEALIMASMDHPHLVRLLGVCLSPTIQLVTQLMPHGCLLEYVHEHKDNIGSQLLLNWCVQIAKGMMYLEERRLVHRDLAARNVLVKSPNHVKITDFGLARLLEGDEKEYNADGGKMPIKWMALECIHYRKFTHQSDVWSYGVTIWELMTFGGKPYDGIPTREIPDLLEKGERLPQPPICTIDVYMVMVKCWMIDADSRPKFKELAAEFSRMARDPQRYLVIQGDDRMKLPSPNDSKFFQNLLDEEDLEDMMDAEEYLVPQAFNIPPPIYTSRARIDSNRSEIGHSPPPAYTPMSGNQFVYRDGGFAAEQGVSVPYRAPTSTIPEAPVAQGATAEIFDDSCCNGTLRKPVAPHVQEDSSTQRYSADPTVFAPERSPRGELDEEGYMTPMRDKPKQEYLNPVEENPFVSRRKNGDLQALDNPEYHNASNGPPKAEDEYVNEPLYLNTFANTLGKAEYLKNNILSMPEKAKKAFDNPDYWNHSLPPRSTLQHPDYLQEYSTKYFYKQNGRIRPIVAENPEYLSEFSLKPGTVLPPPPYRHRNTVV

B1: d2-labeled anti-EGFR single domain antibody G10 (VHH)
VHH: EVQLVESGGGLVQAGGSLRLSCAASGRTFSNYAMGWFRQAPGKEREFVAGIIWSGSRTYYADPVKGRFTISRDNAKNTVYLQMNSLNVEDTAVYYCAASMGDYDVSLASPRSWGKGTQVTVSS
modifications: d2 fluorochrome (d2-NHS) on lysine residues, positions not given
notes: G10 chemically coupled to the acceptor fluorochrome d2 by NHS chemistry; also called G10-d2; d2-labeled clone G10; not shown: His tag
As for B1, in assay [1], the “fold increase of affinity against EGFR without EGF” value is 8 fold. The Kd is 6 nM in assay [2]; 17 nM in assay [3]; 32 nM in assay [4]; 12 nM in assay [5]; 21 nM in assay [6]; 27 nM in assay [7]. In addition, the values for the Kd in [8] and in [9] were 87 nM and 12 nM, respectively.

B2: anti-EGFR single domain antibody G10 (VHH, not shown: small tags and cut ends)
VHH: EVQLVESGGGLVQAGGSLRLSCAASGRTFSNYAMGWFRQAPGKEREFVAGIIWSGSRTYYADPVKGRFTISRDNAKNTVYLQMNSLNVEDTAVYYCAASMGDYDVSLASPRSWGKGTQVTVSS
notes: Llama VHH produced in E. coli, His-tagged; also called sdAb G10; unlabeled G10
As to B2, the binding result in [10], in assay [11] and in assay [12] was “no binding” throughout. Also, the Kd in assay [13] came to 15 nM.

B3: d2-labeled anti-EGFR single domain antibody E10 (VHH)
VHH: QVQLQESGGGLAQAGGSLRLSCAASGRTLSSYDMGWFRQAPGKEREFVTAINWGDLSTYYADSVKGRFTISRDNAKNTVYLQMNSLKPEDTAVYYCAARLRYTVSDPIFSRPDRYNYWGQGTQVTVSS
modifications: d2 fluorochrome (d2-NHS) on lysine residues, positions not given
notes: E10 chemically coupled to the acceptor fluorochrome d2 by NHS chemistry; also called E10-d2; E10-D2; not shown: His tag
Turning to B3, the binding result in assay [14] is “no binding”. Further, the Kd in [2] came to 17 nM; in assay [15], 17 nM; in assay [16], 67 nM; in assay [5], 20 nM; in [6] it was 11 nM; in assay [7], 70 nM. The values for the Kd in [8] and in assay [9] were 106 nM and 20 nM, respectively. Further, in [17], the “fold increase of binding in the presence of cetuximab” value came out at 2 fold.

B4: anti-EGFR single domain antibody E10 (VHH, not shown: small tags and cut ends)
VHH: QVQLQESGGGLAQAGGSLRLSCAASGRTLSSYDMGWFRQAPGKEREFVTAINWGDLSTYYADSVKGRFTISRDNAKNTVYLQMNSLKPEDTAVYYCAARLRYTVSDPIFSRPDRYNYWGQGTQVTVSS
notes: Llama VHH produced in E. coli, His-tagged; also called sdAb E10; unlabeled E10
In the case of B4, the binding result in assay [10], in [11] and in assay [12] was “no binding” each time. In addition, the Kd in [13] turned out to be 25 nM.

B5: anti-EGFR single domain antibody D10 (VHH, not shown: small tags and cut ends)
VHH: EVQLVESGGGLVQAGGSLRLSCAVSISRTIFSLYAMEWYRQPPGKQRDLVARIYRSGDTNYADSVKGRFTISRDNAKNTVYLQMNSLKPEDTGVYYCNSPAQDWPWGQGTQVTVSS
notes: Llama VHH produced in E. coli, His-tagged; also called sdAb D10; unlabeled D10
With B5, the binding result in [10], in assay [11] and in [12] was “no binding” throughout. For the same molecule, the Kd in assay [18] turned out to be 6 nM; in assay [13], 7 nM.

B6: d2-labeled anti-EGFR single domain antibody D10 (VHH)
VHH: EVQLVESGGGLVQAGGSLRLSCAVSISRTIFSLYAMEWYRQPPGKQRDLVARIYRSGDTNYADSVKGRFTISRDNAKNTVYLQMNSLKPEDTGVYYCNSPAQDWPWGQGTQVTVSS
modifications: d2 fluorochrome (d2-NHS) on lysine residues, positions not given
notes: D10 chemically coupled to the acceptor fluorochrome d2 by NHS chemistry; also called D10-d2; d2-labeled clone D10; not shown: His tag
With B6, in assay [14], the binding result is reported as “no binding”. Moreover, the Kd in assay [3] amounted to 11 nM; in assay [15] it was 7 nM; in [16] it was 3 nM; in [4] it was 14 nM; in assay [5], 7 nM; in assay [6] it was 10 nM. The Kd in assay [7] was 13 nM; in [8], 27 nM; in assay [19], 7 nM.

B7: biparatopic single domain antibody D4E (D10 - 4x(G4S) linker - E10) (bispecific antibody)
chain: EVQLQESGGGLVQAGGSLRLSCAVSISRTIFSLYAMEWYRQPPGKQRDLVARIYRSGDTNYADSVKGRFTISRDNAKNTVYLQMNSLKPEDTGVYYCNSPAQDWPWGQGTQVTVSSAAAGGGGSGGGGSGGGGSGGGGSMAQVQLQESGGGLAQAGGSLRLSCAASGRTLSSYDMGWFRQAPGKEREFVTAINWGDLSTYYADSVKGRFTISRDNAKNTVYLQMNSLKPEDTAVYYCAARLRYTVSDPIFSRPDRYNYWGQGTQVTVSSAAAEQKLISEEDLNGAAHHHHHHGS
notes: also called bisdAb D4E
As to B7, the “inhibition of EGF-induced EGFR phosphorylation (FIG. 11); concentration against that of cetuximab” value in [20] came to 100 fold.
